In IntAct's records for PubMed 25910212:

B1: EF-hand domain-containing protein 1 (Homo sapiens), Q5JVL4 (parent)
chain: MVSNPVHGLPFLPGTSFKDSTKTAFHRSQTLSYRNGYAIVRRPTVGIGGDRLQFNQLSQAELDELASKAPVLTYGQPKQAPPADFIPAHVAFDKKVLKFDAYFQEDVPMSTEEQYRIRQVNIYYYLEDDSMSVIEPVVENSGILQGKLIKRQRLAKNDRGDHYHWKDLNRGINITIYGKTFRVVDCDQFTQVFLESQGIELNPPEKMALDPYTELRKQPLRKYVTPSDFDQLKQFLTFDKQVLRFYAIWDDTDSMYGECRTYIIHYYLMDDTVEIREVHERNDGRDPFPLLMNRQRVPKVLVENAKNFPQCVLEISDQEVLEWYTAKDFIVGKSLTILGRTFFIYDCDPFTRRYYKEKFGITDLPRIDVSKREPPPVKQELPPYNGFGLVEDSAQNCFALIPKAPKKDVIKMLVNDNKVLRYLAVLESPIPEDKDRRFVFSYFLATDMISIFEPPVRNSGIIGGKYLGRTKVVKPYSTVDNPVYYGPSDFFIGAVIEVFGHRFIILDTDEYVLKYMESNAAQYSPEALASIQNHVRKREAPAPEAESKQTEKDPGVQELEALIDTIQKQLKDHSCKDNIREAFQIYDKEASGYVDRDMFFKICESLNVPVDDSLVKELIRMCSHGEGKINYYNFVRAFSN
partner: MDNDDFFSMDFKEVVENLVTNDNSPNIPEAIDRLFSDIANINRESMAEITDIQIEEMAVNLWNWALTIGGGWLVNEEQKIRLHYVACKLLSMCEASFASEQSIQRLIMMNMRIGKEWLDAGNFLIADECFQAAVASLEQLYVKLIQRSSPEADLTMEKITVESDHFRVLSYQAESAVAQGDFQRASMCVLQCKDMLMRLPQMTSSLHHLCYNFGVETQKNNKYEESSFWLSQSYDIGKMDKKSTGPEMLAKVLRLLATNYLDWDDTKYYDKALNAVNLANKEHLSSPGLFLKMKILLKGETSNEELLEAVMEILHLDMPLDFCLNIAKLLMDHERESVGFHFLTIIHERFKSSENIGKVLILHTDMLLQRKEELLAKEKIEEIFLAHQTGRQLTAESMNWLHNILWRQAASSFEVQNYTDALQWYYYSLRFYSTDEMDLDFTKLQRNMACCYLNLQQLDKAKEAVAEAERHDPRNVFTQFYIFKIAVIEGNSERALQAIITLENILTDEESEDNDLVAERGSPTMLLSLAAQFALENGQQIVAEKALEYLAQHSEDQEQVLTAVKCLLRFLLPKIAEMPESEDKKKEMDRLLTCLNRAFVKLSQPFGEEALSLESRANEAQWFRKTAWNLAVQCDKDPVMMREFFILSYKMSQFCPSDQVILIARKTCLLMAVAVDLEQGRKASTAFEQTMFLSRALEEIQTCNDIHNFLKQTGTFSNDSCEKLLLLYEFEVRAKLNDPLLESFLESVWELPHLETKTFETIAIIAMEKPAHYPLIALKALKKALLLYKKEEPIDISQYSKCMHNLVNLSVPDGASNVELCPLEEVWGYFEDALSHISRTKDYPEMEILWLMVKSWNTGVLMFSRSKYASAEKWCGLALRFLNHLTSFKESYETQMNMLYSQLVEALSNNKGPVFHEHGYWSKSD
B2: EF-hand domain-containing protein 1 (Homo sapiens), Q5JVL4 (parent)
chain: B1 chain
partner: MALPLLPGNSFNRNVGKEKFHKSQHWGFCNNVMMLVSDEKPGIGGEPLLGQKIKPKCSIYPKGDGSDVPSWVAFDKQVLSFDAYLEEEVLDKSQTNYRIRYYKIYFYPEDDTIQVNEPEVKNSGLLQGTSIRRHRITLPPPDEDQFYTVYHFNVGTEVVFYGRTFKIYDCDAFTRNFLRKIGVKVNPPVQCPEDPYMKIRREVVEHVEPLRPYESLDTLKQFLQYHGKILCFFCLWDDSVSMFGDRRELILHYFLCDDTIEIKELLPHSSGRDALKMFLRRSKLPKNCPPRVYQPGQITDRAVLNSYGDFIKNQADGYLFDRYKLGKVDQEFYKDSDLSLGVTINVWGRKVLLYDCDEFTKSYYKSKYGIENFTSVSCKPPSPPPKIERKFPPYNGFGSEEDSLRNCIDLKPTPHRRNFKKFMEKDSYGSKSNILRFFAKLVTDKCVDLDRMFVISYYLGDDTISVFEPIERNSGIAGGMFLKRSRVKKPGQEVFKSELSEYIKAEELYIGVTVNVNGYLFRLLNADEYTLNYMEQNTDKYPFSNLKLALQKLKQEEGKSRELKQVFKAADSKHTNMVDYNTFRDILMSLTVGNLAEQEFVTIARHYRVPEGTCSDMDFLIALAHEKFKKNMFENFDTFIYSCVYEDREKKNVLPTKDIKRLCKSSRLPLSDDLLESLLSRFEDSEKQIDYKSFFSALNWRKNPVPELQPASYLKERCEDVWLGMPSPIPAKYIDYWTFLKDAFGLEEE

Variants of: B1
Settings: with TEX11, Q8IYF3-3

Variant | effect of a mutation on the interaction
A394S | disrupting interaction strength
R221H | disrupting interaction strength
M448T | with no effect
R159W | with no effect
T508R | with no effect
P77T | with no effect

Variants of: B2
Settings: with efhc2_human EFHC2, Q5JST6

Variant | effect of a mutation on the interaction
R221H | disrupting interaction strength
R159W | with no effect
T508R | with no effect
A394S | disrupting interaction strength
M448T | with no effect
